For this data set the following is noted: Escherichia coli (strain K12); pH 7.5; Thermal; Intensity; HEPES 20mM; transition: 2.

Among the data in FireProtDB (doi:10.1126/science.aai7825) are Tm values, retold here.

Sequence of Adenylate kinase wild type, P69441 (P69441 whole entry): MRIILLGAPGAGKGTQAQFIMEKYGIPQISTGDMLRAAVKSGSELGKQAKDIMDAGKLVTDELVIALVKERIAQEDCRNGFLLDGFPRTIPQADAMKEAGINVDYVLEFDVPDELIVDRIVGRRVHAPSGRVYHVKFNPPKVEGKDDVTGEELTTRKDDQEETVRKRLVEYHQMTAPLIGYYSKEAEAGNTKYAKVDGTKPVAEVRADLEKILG

Consider Adenylate kinase wild type, P69441, for which the Tm – broadly, the temperature at the midpoint of the melting transition – was 42.5 °C.
